Test results as given in patent US9968687B2, “Anti-DLL3 antibody drug conjugates” (AbbVie Stemcentrx LLC, priority 2013, dated 2018).
Residue numbers refer to the chain shown, from its start.

T1: murine DLL3 (Mus musculus, UniProt O88516)
T1 construct: expressed in transfected cells; host or cells: 293 (HEK-293T) cells
T1 sequence (O88516 33-585 isoform O88516-2 limits assumed): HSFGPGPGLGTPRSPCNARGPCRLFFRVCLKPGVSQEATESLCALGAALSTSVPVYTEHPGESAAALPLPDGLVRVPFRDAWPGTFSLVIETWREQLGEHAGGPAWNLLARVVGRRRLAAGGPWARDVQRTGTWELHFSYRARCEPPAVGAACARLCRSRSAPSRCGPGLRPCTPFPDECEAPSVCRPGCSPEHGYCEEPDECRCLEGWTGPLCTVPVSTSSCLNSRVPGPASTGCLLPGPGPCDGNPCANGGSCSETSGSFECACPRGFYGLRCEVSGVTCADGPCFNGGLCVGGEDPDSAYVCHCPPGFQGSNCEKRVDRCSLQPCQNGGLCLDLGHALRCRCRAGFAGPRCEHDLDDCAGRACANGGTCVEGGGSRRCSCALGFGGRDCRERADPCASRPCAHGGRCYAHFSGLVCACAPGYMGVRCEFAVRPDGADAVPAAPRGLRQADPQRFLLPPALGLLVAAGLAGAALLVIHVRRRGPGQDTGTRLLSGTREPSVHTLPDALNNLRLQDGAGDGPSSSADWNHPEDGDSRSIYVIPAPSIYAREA

T2: human DLL3 antigen (Homo sapiens, UniProt Q9NYJ7)
T2 sequence (Q9NYJ7 27-618): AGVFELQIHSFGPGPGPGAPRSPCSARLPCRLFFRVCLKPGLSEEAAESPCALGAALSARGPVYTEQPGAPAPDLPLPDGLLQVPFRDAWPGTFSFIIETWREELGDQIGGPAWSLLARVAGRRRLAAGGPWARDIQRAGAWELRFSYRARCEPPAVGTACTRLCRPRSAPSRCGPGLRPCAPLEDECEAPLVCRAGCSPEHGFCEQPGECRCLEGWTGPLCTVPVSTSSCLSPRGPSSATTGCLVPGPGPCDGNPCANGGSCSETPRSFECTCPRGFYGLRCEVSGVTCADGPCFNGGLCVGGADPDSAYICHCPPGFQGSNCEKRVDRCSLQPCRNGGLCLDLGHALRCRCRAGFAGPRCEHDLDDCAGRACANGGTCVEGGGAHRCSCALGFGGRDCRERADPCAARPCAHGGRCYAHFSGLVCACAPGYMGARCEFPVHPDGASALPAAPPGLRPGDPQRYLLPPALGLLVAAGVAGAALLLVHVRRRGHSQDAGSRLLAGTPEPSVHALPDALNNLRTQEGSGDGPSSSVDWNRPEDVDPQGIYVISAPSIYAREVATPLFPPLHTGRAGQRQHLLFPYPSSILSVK

B1: SC16.8: murine anti-DLL3 monoclonal antibody, sequences in FIGS. 3A and 3B (antibody, V domains shown)
VL: EIQMTQSPSSMSASLGDRITITCQATQDIVKNLNWYQQKPGKPPSFLIYYAIELAEGVPSRFSGSGSGSDYSLTISNLESEDFADYYCLQFYEFPFTFGAGTKLELK
VH: QAQLQQSGAELVRPGTSVKVSCKASGYAFTNYLIEWVKQRPGQGLEWIGVINPGTGGTNYNENFKGKATLTADKSSSTAYMQLSSLTSDDSAVYFCARSPYDYHEGAMDYWGQGTSVTVSS
B2: SC16.4: murine anti-DLL3 monoclonal antibody; VL/VH SEQ ID NOS: 25 and 27 (antibody, listed as Mus musculus, V domains shown)
VH: QIQLVQSGPELKKPGETVKISCKASGYTFTDYSMHWVKQAPGKGLKWMGWINTETGEPGYADDFKGRFAFSLETSASTAYLQINNLKNEDTATYFCARYDGYAMDYWGQGTSVTVSS
VL: DIQMTQTTSSLSASLGDRVTISCRASQDISNYLNWYQQKPDGTVKLLIYYTSRLHSGVPSRFSGSGSGTDYSLTISNLELEDIATYFCQQGDMLPWTFGGGTKLEIK
B3: SC16.13: murine anti-DLL3 monoclonal antibody, sequences in FIGS. 3A and 3B (antibody, V domains shown)
VL: QIVLTQSPALVSASPGEKVTMTCSASSSVSYMYWYQQKPRSSPKPWIYLTSNLASGVPARFSGSGSGTSYSLTISSMEAEDAATYYCQQWRSNPFTFGSGTKLEIK
VH: QVTLKESGPGILQPSQTLSLTCSFSGFSLSTSGMGVGWIRQPSGKGLEWLAHIWWDDVKRYNPALKSRLTISKDTSSSQVFLKIASVDTADTATYYCARIVSFDNDVVSAMDYWGQGTSVTVSS
B4: SC16.65: murine anti-DLL3 monoclonal antibody, sequences in FIGS. 3A and 3B (antibody, V domains shown)
VL: B3 VL with V11M, A25V, S26T, M77V, S92N, L103V
VH: B3 VH with H52L, T75A, V101A, F103Y, N105Y, S109Y, T121S
B5: SC16.10: murine anti-DLL3 monoclonal antibody, sequences in FIGS. 3A and 3B (antibody, V domains shown)
VL: QIVLTQSPAIMSASLGERVTMTCTASSSVSSSYLHWYQQKPGSSPKLWIYSTSNLASGVPTRFSGSGSGTSYSLTISSMEAEDAATYYCHQYHRSPFTFGSGTKLEIK
VH: QVTLKESGPGILQSSQTLSLTCSFSGFSLSTSGMGVGWIRQPSGKGLEWLAHIWWDDVKRYNPVLKSRLTISKDTSSSQVFLKIASVDTADTATYYCARLVDDLYYFDYWGQGTTLTVSS
B6: SC16.15: murine anti-DLL3 monoclonal antibody, sequences in FIGS. 3A and 3B (antibody, V domains shown)
VL: DIQMTQSPASLAASVGETVAITCRASENIYYNLAWYQQKQGKSPQLLIYTANSLEDGVPSRFSGSGSGTQYSLKINSMQPEDSATYFCKQAYDVPPTFGGGTKLEIK
VH: QVQLQQSGAELAKPGASVKMSCKASGYTFTRYWIHWIKQRPGQGLEWIGYINPTTVYTEFNQNFKDKATLTADKSSTTASMQLSSLTSEDSAVYYCARGGSNFFDYWGQGTTLTVSS
B7: SC16.34: murine anti-DLL3 monoclonal antibody, sequences in FIGS. 3A and 3B (antibody, V domains shown)
VL: SIVMTQTPKFLLVSAGDRVTITCKASQSVSNDVAWYQQKPGQSPKLLIYYASNRYSGVPDRFTGSGYGTDFTFTISTVQAEDLAVYFCQQDYSSPWTFGGGTKLEIK
VH: QIQLVQSGPELKRPGETVKISCKASGYTFTNYGMNWVKQAPGKGLKWMGWINTYTGDPTYADDFKGRFAFSLETSASTAYLQINNLKNEDTATYFCARIGGNSPSDYWGQGTSLTVSS
B8: SC16.56: murine anti-DLL3 monoclonal antibody, sequences in FIGS. 3A and 3B (antibody, V domains shown)
VL: B7 VL with A34V, S56T, T63A, T72S, S93T, K107R
VH: B7 VH with R13K, G49A, D57E, Y80S, N84I, G101D, N102S, S113T
B9: SC16.25: murine anti-DLL3 monoclonal antibody, sequences in FIGS. 3A and 3B (antibody, V domains shown)
VL: QIVLTQSPAIMSASPGEKVTMTCSASSSVSYMHWYQQKSGTSPKRWIYDSSKLASGVPARFSGSGSGTSYSLTISSMEAEDAATYYCQQWSSNPLTFGAGTKLELK
VH: QVTLKESGPGILQPSQTLSLTCSFSGFSLSTSGMGVGWIRQPSGEGLEWLTDIWWDDNKYYNPSLKSRLTISKDTSSNQVFLNITSVDTADTATYYCARRVNYYYDPYYAMDYWGQGTSVTVSS

How the values were obtained:
murine DLL3 = molecular target: T1, murine DLL3; test: Flow cytometry on 293 cells over-expressing murine DLL3; type: binding
Procedure: In addition to evaluating the exemplary modulators as set forth above, flow cytometry was performed in order to confirm that selected SC16 antibody modulators can immunospecifically associate with human DLL3 and to determine whether the same antibodies cross-react with cynomolgus, rat and/or murine DLL3. More particularly the exemplary murine antibodies were analyzed by flow cytometry using a FACSCanto II and 293 cells over-expressing murine, rat, cynomolgus or human DLL3. In some cases, exemplary murine modulators were analyzed by flow cytometry using a FACSCanto II and yeast cells displaying cynomolgus DLL3 using the methods described by Cochran et al. (J Immunol Methods. 287 (1-2):147-158 (2004).
Such results are not unexpected given that murine DLL3 is approximately 83% homologous with isoform 2 of human DLL3. It will be appreciated that this cross-reactivity may be advantageously exploited in the context of the instant invention through the use of animal models in drug discovery and development.

human DLL3 antigen = molecular target: T2, human DLL3 antigen; test: Surface plasmon resonance (Biacore 2000), humanized versus chimeric constructs; details: concentration series of 25 and 12.5 nM human DLL3 antigen, 1:1 Langmuir binding model, estimated, read-out: KD of antibody binding to human DLL3 antigen
Procedure: Besides the aforementioned assays, humanized constructs hSC16.13, hSC16.15, hSC16.25, hSC16.34 and hSC16.56 from Example 4 were analyzed to determine if the CDR grafting process had appreciably altered their binding characteristics. In this respect the humanized constructs (CDR grafted) were compared with “traditional” chimeric antibodies comprising the murine parent (or donor) heavy and light chain variable domains and a human constant region substantially equivalent to that used in the humanized constructs. With these constructs surface plasmon resonance (SPR) was conducted using a Biacore 2000 (GE Healthcare) to identify any subtle changes in rate constants brought about by the humanization process.
Based on a concentration series of 25 and 12.5 nM of human DLL3 antigen and using a 1:1 Langmuir binding model, the KD of the SC16.15 antibody binding to human DLL3 antigen was estimated to be 0.2 nM.

Row | Kd (human DLL3 antigen) [nM] | Molecule | cross-reactivity with murine DLL3 (murine DLL3)
1 |  | B1 | cross-react with murine DLL3 to a greater or lesser extent
2 |  | B2 | cross-react with murine DLL3 to a greater or lesser extent
3 |  | B3 | did not appreciably associate with murine DLL3
4 |  | B4 | did not appreciably associate with murine DLL3
5 |  | B5 | did not appreciably associate with murine DLL3
6 | ~0.2 | B6 | cross-react with murine DLL3 to a greater or lesser extent
7 |  | B7 | cross-react with murine DLL3 to a greater or lesser extent
8 |  | B8 | cross-react with murine DLL3 to a greater or lesser extent
9 |  | B9 | did not appreciably associate with murine DLL3
